Key:
Experiment in all cases: FRET or BRET
[1] = biological target: Gγ subunit (human (endogenous in PMNs)) (UniProt P59768)
[2] = biological target: Hck (haemopoietic cell kinase) (human (endogenous in PMNs)) (UniProt P08631)
[3] = biological target: β-arrestin-1 (human (endogenous in PMNs)) (UniProt P49407)
UniProt P49407, sequence (P49407 whole entry): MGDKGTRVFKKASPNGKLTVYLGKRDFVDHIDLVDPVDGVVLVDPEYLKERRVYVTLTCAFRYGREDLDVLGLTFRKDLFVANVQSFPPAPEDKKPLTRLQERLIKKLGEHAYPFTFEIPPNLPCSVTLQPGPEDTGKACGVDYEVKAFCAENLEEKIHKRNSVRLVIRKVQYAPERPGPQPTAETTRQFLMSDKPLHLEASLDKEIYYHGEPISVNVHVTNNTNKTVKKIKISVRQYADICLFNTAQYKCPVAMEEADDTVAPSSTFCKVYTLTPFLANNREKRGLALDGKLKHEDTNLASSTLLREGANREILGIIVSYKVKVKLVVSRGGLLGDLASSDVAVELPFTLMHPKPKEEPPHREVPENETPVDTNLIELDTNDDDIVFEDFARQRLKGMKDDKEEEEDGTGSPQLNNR

UniProt P08631, sequence (P08631 whole entry): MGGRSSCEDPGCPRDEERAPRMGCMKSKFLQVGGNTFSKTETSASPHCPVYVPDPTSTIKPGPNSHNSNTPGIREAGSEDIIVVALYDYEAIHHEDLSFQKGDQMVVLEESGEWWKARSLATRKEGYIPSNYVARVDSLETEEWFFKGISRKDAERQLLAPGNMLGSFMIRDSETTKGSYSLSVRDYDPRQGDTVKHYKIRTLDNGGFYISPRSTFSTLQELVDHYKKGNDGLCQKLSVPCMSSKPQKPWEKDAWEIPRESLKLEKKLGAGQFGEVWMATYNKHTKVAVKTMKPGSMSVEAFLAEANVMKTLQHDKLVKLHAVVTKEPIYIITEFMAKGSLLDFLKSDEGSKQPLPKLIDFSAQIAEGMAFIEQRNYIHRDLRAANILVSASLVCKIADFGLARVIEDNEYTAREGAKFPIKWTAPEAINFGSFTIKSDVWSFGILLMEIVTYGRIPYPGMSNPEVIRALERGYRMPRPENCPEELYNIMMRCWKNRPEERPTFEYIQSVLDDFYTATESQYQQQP

Row | FRET efficiency [1] [%] | FRET efficiency [2] [%] | FRET efficiency [3] [%] | Substance
1 | 58 | 54 |  | Gβ subunit (from UniProt P62873 1-340) (natural protein)
2 |  |  | 38 | clathrin heavy chain (from UniProt Q00610 1-1675) (natural protein)

Source: publication PMC3131183
